Measured values as given in the supplement of paper PMC9732359.
± gives the uncertainty stated by the source.

Assay: protein stability index of a GFP-peptide fusion (yeast GPS) (PSI 1-4); higher = more stable; sorted into four equal gates, so the index is relative within each strain
Summary of the method: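 Mid-log yeast cultures in leucine-free medium, carrying a pooled plasmid library, were sorted into four equal gates by their GFP/Cherry fluorescence ratio. Each plasmid expressed Cherry along with GFP fused upstream of a tiled 17-residue yeast protein peptide. Plasmids recovered from each gate were PCR-amplified and Illumina-sequenced, with reads assigned to strains by barcodes. The protein stability index was obtained by summing each gate's read frequency weighted by its gate number.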

Sequence | protein stability index (pdr5∆) | protein stability index (ubr1∆) | protein stability index (doa10∆) | protein stability index (san1∆)
AILYTKPGHVLQEEWDQ [YGR119C/NUP57] | 3.25 ± 0.14 | 3.81 ± 0.23 | – | –
DIFITPTPVVTISEKEQ [SSN2] | 1.95 ± 0.077 | 1.67 ± 0.069 | 1.76 ± 0.079 | 1.48 ± 0.12
HFPINVNIVEKDGAKFI [RPL9A] | 2.57 ± 0.079 | 2.5 ± 0.07 | 2.58 ± 0.069 | 2.53 ± 0.065
NIFKAEMDSVSKSMKFS [CSN9] | 2.58 ± 0.066 | 2.85 ± 0.044 | 2.58 ± 0.065 | 2.71 ± 0.051
GSLKLIELLCGLGKSAV [NAS6] | – | – | – | 3.08 ± 0.098
EYIIAAIRKAPHNSKSL [RPN3] | 2.76 ± 0.061 | 2.68 ± 0.06 | 2.79 ± 0.067 | 2.64 ± 0.045
QFTLYDRELNEVINQME [SMC3] | 3.09 ± 0.091 | 3.08 ± 0.046 | 3.01 ± 0.095 | 2.94 ± 0.13
VSTEGNVPQTLAPVPYE [RPL21A] | 3.02 ± 0.085 | 3.05 ± 0.068 | 3.19 ± 0.072 | 3.11 ± 0.05
ETGKLLSGLAQRKTNGA [BRN1] | – | – | – | 2.97 ± 0.11
ERAKNVNGLLQVLMDIN [GAL11] | 3.15 ± 0.083 | 2.83 ± 0.04 | 2.94 ± 0.086 | 3.19 ± 0.12
PHDLIIGTADIFIRQLK [BRR2] | 2.51 ± 0.069 | 2.49 ± 0.052 | 2.11 ± 0.057 | 2.27 ± 0.073
FQAHEITSFLLSKMENV [NAS6] | 1.53 ± 0.045 | 1.69 ± 0.045 | 1.79 ± 0.079 | 1.66 ± 0.094
IGDYILKSPVLSKLCVP [QCR7] | 1.36 ± 0.078 | 1.69 ± 0.058 | 1.55 ± 0.061 | 1.56 ± 0.11
LVPQLGHVGSVQISNIP [PRP8] | 2.3 ± 0.065 | 2.72 ± 0.089 | 2.32 ± 0.1 | 1.91 ± 0.12
TKGMITNLQRNVDRLYK [NUT2] | 3.35 ± 0.18 | 3.24 ± 0.16 | 3.47 ± 0.29 | 2.69 ± 0.24
YGNDEEVLFYEDNYNPK [RPN4] | 3.2 ± 0.12 | 2.96 ± 0.074 | 3.11 ± 0.094 | 3.12 ± 0.097
LIHPENFTCNRKILNFK [SWI1] | 2.49 ± 0.064 | 2.88 ± 0.075 | 2.17 ± 0.069 | 2.37 ± 0.064
DSLSVPKVSAGDSGISP [SIR4] | 3.24 ± 0.11 | 3.18 ± 0.058 | 3.24 ± 0.12 | 3.02 ± 0.084
TRGPFHFRAPSRILYKA [RPL16B] | 2.43 ± 0.045 | 2.27 ± 0.042 | 2.3 ± 0.064 | 2.08 ± 0.068
LKLPADATTWRYSMSEQ [IRR1] | 2.65 ± 0.058 | 2.5 ± 0.059 | 2.68 ± 0.071 | 2.69 ± 0.065
GLNWLISLHENKLSGIL [ISW2] | 2.06 ± 0.062 | 2.31 ± 0.092 | 2.05 ± 0.056 | 2.11 ± 0.082
ESITYQKIMILQRTILN [RGR1] | 1.69 ± 0.06 | 2.06 ± 0.065 | 1.61 ± 0.069 | 1.49 ± 0.099
VRNKSYPVYTRLRTLCR [DIS3] | 2.83 ± 0.072 | 2.46 ± 0.051 | 2.65 ± 0.08 | 3.06 ± 0.11
SFHVQKKTCSSCGYPAA [RPL37A] | 2.13 ± 0.11 | 2.06 ± 0.068 | 1.85 ± 0.091 | 1.71 ± 0.16
ELLDQVTLGREGQIIQR [CDC53] | 3.73 ± 0.18 | 3.21 ± 0.19 | 3.07 ± 0.14 | –
SFLEKPKFAIQDNHHIT [YMR129W/POM152] | 2.81 ± 0.081 | 2.76 ± 0.089 | 2.89 ± 0.074 | 2.81 ± 0.051
DLSYNFNVHEVPRAALE [YMR129W/POM152] | 3.04 ± 0.069 | 2.92 ± 0.049 | 2.91 ± 0.057 | 2.85 ± 0.054
PTSPAYSPTSPSYSPTS [RPO21] | 2.86 ± 0.045 | 2.9 ± 0.035 | 2.89 ± 0.051 | 2.73 ± 0.037
